Measured values from PMC3512577 (Nature structural & molecular biology, 2011).

Key:
[1] = biological target: recombinant C3d D122A (D1115A) (human) (UniProt P01024); experiment: SPR
[2] = biological target: recombinant C3d E117A/D122A (E1110A/D1115A), with C17A (C1011A) (human, UniProt P01024 996-1306, E117A (E1110A) | D122A (D1115A)); experiment: SPR
[3] = biological target: recombinant C3d D122A (D1115A), with C17A (C1011A) (human, UniProt P01024 996-1306, D122A (D1115A)); experiment: SPR
[4] = biological target: recombinant C3d E117A (E1110A), with C17A (C1011A) (human, UniProt P01024 996-1306, E117A (E1110A)); experiment: SPR
plasma-derived C3d = plasma-derived C3d (UniProt P01024 996-1303); experiment: NMR titration

Molecule: FH19–20 L1189F (from UniProt P08603 1108-1231) (domain or fragment)
- Kd [1]: 46 µM

Molecule: complement factor H CCP19–20, wild type (FH19–20) (from UniProt P08603 1108-1231) (domain or fragment)
- Kd [1]: 46 µM

B1: FH19–20 (wild-type recombinant fragment of human complement factor H, CCP modules 19 and 20) (domain or fragment, UniProt P08603 1108-1231, looked up)
chain: KCGPPPPIDNGDITSFPLSVYAPASSVEYQCQNLYQLEGNKRITCRNGQWSEPPKCLHPCVISREIMENYNIALRWTAKQKLYSRTGESVEFVCKRGYRLSSRSHTLRTTCWDGKLEYPTCAKR
modifications: 15N-labelled (NMR experiments only)
- Kd [2]: ~30000 µM
- fold decrease in affinity against wild-type C3d [2]: ~1600 fold
- fold decrease in binding against C3d E160A and I164A [3]: 3 fold
- fold decrease in binding against wild-type C3d [3]: 6 fold
- fold decrease in binding against C3d E160A and I164A [4]: 2 fold
- fold decrease in binding against wild-type C3d [4]: 4 fold
- binding result (plasma-derived C3d): binds
